The record followed here is patent US20190330271A1.

One assay concerns the target lysozyme. The assay is described as follows: cell-based or functional assay.
The target in another assay is insulin. The assay is described as follows: cell-based or functional assay.
For the next assay, the target named is amylin (UniProt P10997). The assay is described as follows: cell-based or functional assay.
A further assay concerns the target Aβ42 (UniProt P05067). The assay can be described thus: cell-based or functional assay.
In a further assay the target is Aβ42 fibers, P05067. The assay is described as follows: ELISA, amyloid coated at 1 µg/well, His-tagged ZR detected with HRP-linked antibody. Background: An ELISA detects its analyte on a solid surface through an enzyme-linked reagent.
Aβ42 fibers, P05067, sequence (P05067 672-713 limits assumed): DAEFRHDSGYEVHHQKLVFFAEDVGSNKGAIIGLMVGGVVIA
The next assay deals with T1, amylin monomers, P10997.
T1 chain: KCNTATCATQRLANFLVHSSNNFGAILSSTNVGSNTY
Described as above.

For another assay, the target named is T2, amylin fibers, P10997.
T2 chain: T1 chain
The assay is described as above.

A further assay concerns the target T3, amylin oligomers, P10997.
T3 chain: T1 chain
The description is as above.

The next assay addresses Aβ42 oligomers, P05067. The description is as above.
A further assay concerns the target Aβ42 monomers, P05067. The assay is described as above.

Aβ42, sequence (P05067 672-713 limits assumed): as the sequence (P05067 672-713 limits assumed) above
Aβ42 monomers, P05067, sequence (P05067 672-713 limits assumed): as the sequence (P05067 672-713 limits assumed) above
Aβ42 oligomers, P05067, sequence (P05067 672-713 limits assumed): as the sequence (P05067 672-713 limits assumed) above

With SFFNNKR [ZR polypeptide (SEQ ID NO. 2)], in the assay with lysozyme, the ThT fluorescence value, lysozyme with ZR at a molar ratio of 1:1 (lysozyme alone: 310000) was 220000; the ThT fluorescence value, lysozyme with ZR at a molar ratio of 1:10 (lysozyme alone: 310000) was found to be 170000; the cell activity of SH-SY5Y cells (MTT), lysozyme:ZR=1:1 group (lysozyme group: 55%) amounted to 85%; the cell activity of SH-SY5Y cells (MTT), lysozyme:ZR=1:10 group (lysozyme group: 55%) stood at 93%. In the assay with lysozyme, the cytotoxicity inhibited, molar ratio 1:10 was 118%. Further, in the assay with insulin, the ThT fluorescence value, insulin with ZR at a molar ratio of 1:1 (insulin alone: 305000) worked out at 305000; the ThT fluorescence value, insulin with ZR at a molar ratio of 1:10 (insulin alone: 305000) stood at 310000; the cell activity of SH-SY5Y cells (MTT), insulin:ZR=1:1 group (insulin group: 77%) was 92%; the cell activity of SH-SY5Y cells (MTT), insulin:ZR=1:5 group (insulin group: 77%) was determined as 102%. In addition, the cytotoxicity inhibited, molar ratio 1:5 in the assay with insulin was determined as 89.8%. In the assay with amylin, the ThT fluorescence value, amylin with ZR at a molar ratio of 1:1 (amylin alone: 38000) was found to be 41000; the ThT fluorescence value, amylin with ZR at a molar ratio of 1:10 (amylin alone: 38000) came to 43000; the cell activity of SH-SY5Y cells (MTT), Amylin:ZR=1:1 group (Amylin group: 61%) is 70%; the cell activity of SH-SY5Y cells (MTT), Amylin:ZR=1:10 group (Amylin group: 61%) was 75%. In addition, the cytotoxicity inhibited, molar ratio 1:10 in the assay with amylin was found to be 45.4%. Further, in the assay with Aβ42, the ThT fluorescence value, Aβ42 with ZR at a molar ratio of 1:1 (Aβ42 alone: 26500) came to 22000; the ThT fluorescence value, Aβ42 with ZR at a molar ratio of 1:10 (Aβ42 alone: 26500) was 17000; the cell activity of SH-SY5Y cells (MTT), Aβ:ZR=1:0.5 group (Aβ42 group: 71%) was determined as 80%; the cell activity of SH-SY5Y cells (MTT), Aβ:ZR=1:1 group (Aβ42 group: 71%) was determined as 82%. Besides, in the assay with Aβ42, the cytotoxicity inhibited, molar ratio 1:1 was 37.8%.
On to SFFNNKR (modifications not checked) [histidine-tagged ZR polypeptide (SEQ ID NO. 2)], for which the OD450 with Aβ42 fibers, P05067 turned out to be 0.35; with amylin monomers, P10997, 0.41; in the assay with amylin fibers, P10997, 0.18; with amylin oligomers, P10997 it was 0.5; in the assay with Aβ42 oligomers, P05067, 0.38; in the assay with Aβ42 monomers, P05067 it was 0.34.
